Biological target: SenDRT9 reverse transcriptase (SenRT), affinity tag cleaved, in complex with its ncRNA (Salmonella enterica)
Assay: cryo-EM structure; 2.5 uM tag-cleaved DRT9 RT-ncRNA complex (hexamer) on Quantifoil grids; D3 symmetry imposed, 2.59 A

## SenDRT9 reverse transcriptase (SenRT), affinity tag cleaved, in complex with its ncRNA (enzyme)
  stoichiometry N: 6

Reference: article PMC12483538
